Data published in patent US20140178332A1 (published 2014).
Changes are numbered by the printed parent chain. Where two headings read alike, the source gives them in different places. Blank lines part the entries; values can stand above or below the binder they belong to.

Legend:
[1] = biological target: T1, recombinant purified human IL-12 p70 (human, UniProt P29459 23-219); experiment: SPR (BIAcore) as in Example 1.1.B
T1 construct: Disulfide-linked heterodimer of p35 and p40; also called hIL-12; Hu IL-12
T1 sequence 1: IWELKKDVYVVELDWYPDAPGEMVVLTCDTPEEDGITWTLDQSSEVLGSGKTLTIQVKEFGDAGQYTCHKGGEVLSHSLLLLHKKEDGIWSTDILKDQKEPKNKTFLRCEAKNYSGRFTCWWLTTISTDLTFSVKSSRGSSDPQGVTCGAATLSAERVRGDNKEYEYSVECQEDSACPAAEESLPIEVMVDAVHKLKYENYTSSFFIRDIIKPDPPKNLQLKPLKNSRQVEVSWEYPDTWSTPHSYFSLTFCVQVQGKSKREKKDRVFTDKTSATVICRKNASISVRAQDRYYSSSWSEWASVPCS
T1 sequence 2: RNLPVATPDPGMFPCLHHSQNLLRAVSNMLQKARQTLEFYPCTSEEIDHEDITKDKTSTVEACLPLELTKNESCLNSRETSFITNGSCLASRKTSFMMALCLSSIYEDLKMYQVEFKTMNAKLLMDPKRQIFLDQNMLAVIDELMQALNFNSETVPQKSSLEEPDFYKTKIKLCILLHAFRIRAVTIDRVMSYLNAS
Procedure: (§1) The BIACORE assay (Biacore, Inc, Piscataway, N.J.) determines the affinity of antibodies with kinetic measurements of on-, off-rate constants. Binding of antibodies to recombinant purified human IL-12 p70 or recombinant purified human IL-12 p40 were determined by surface plasmon resonance-based measurements with a Biacore® 3000 instrument (Biacore® AB, Uppsala, Sweden) using running HBS-EP (10 mM HEPES [pH 7.4], 150 mM NaCl, 3 mM EDTA, and 0.005% surfactant P20) at 25° C. All chemicals were obtained from Biacore® AB (Uppsala, Sweden) or otherwise from a different source as described in the text. Approximately 5000 RU of goat anti-mouse IgG, (Fcγ), fragment specific polyclonal antibody (Pierce Biotechnology Inc, Rockford, Ill.) diluted in 10 mM sodium acetate (pH 4.5) was directly immobilized across a CM5 research grade biosensor chip using a standard amine coupling kit according to manufacturer's instructions and procedures at 25 μg/ml. Unreacted moieties on the biosensor surface were blocked with ethanolamine. Modified carboxymethyl dextran surface in flowcell 2 and 4 was used as a reaction surface. Unmodified carboxymethyl dextran without goat anti-mouse IgG in flow cell 1 and 3 was used as the reference surface. For kinetic analysis, rate equations derived from the 1:1 Langmuir binding model were fitted simultaneously to association and dissociation phases of all eight injections (using global fit analysis) with the use of Biaevaluation 4.0.1 software. Purified antibodies were diluted in HEPES-buffered saline for capture across goat anti-mouse IgG specific reaction surfaces. Mouse antibodies to be captured as a ligand (25 μg/ml) were injected over reaction matrices at a flow rate of 5 μl/min. The association and dissociation rate constants, kₒₙ (unit M⁻¹ s⁻¹) and koff (unit s⁻¹) were determined under a continuous flow rate of 25 μl/min. Rate constants were derived by making kinetic binding measurements at ten different antigen concentrations ranging from 10-200 nM. The equilibrium dissociation constant (unit M) of the reaction between mouse antibodies and recombinant purified human IL-12 p70 or recombinant purified human IL-12 p40 was then calculated from the kinetic rate constants by the following formula: KD=koff/kₒₙ. Binding is recorded as a function of time and kinetic rate constants are calculated.

[2] = biological target: T1, recombinant purified human IL-12 p70; experiment: cell-based or functional assay
[3] = biological target: T2, recombinant purified cyno IL-12 p70 (cynomolgus monkey); experiment: cell-based or functional assay
T2 chain 1: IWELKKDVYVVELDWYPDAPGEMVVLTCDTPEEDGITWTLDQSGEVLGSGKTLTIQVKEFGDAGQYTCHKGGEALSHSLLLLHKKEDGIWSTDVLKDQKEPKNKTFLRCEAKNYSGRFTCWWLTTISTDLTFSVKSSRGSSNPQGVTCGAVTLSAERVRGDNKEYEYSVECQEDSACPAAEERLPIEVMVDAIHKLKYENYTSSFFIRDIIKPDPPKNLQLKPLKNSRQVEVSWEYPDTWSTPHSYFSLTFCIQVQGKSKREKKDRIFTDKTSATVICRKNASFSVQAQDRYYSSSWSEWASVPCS
T2 chain 2: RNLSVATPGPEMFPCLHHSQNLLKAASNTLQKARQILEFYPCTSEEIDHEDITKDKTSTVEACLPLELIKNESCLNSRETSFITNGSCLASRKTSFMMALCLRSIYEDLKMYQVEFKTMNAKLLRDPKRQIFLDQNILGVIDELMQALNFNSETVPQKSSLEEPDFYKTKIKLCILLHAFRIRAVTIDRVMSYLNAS

[4] = biological target: T1, recombinant purified human IL-12 p70; experiment: cell-based or functional assay; remark: listed apart in the source
[5] = biological target: T2, recombinant purified cyno IL-12 p70; experiment: cell-based or functional assay
[6] = biological target: T1, recombinant purified human IL-12 p70; experiment: cell-based or functional assay; remark: listed apart in the source
[7] = biological target: T2, recombinant purified cyno IL-12 p70; experiment: cell-based or functional assay
[8] = biological target: T1, recombinant purified human IL-12 p70; experiment: SPR (Biacore), mAb captured on anti-mouse IgG Fc, IL-12 p70 as analyte
Procedure: as §1

[9] = biological target: T3, recombinant purified mouse IL-12 (Peprotech) (mouse, UniProt P43432 23-335; P43431 23-215); experiment: direct ELISA, plate coated with 5 ug/ml recombinant mouse IL-12
T3 construct: Bought reagent; also called mu IL-12; murine IL-12
T3 sequence (looked up) 1: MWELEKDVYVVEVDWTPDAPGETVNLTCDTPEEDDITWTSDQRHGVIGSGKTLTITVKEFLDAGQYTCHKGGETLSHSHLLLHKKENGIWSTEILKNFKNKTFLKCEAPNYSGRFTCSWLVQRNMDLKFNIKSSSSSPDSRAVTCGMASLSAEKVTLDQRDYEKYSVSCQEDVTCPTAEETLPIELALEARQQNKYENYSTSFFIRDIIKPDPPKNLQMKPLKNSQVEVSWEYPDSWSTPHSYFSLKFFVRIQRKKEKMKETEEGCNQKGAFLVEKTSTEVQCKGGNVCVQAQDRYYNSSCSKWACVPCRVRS
T3 sequence (looked up) 2: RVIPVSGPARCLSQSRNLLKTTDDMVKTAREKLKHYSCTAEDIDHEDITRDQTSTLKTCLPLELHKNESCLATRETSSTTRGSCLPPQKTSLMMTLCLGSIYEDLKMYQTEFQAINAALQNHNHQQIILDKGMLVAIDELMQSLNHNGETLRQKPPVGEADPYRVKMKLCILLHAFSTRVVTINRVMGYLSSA
Procedure: To determine whether the ten monoclonal antibodies described above recognize murine IL-12, two ELISAs were set up. First, a direct ELISA was set up by directly coating ELISA plates with 5 ug/ml of recombinant purified mouse IL-12 (Peprotech). Murine-anti-human IL-12 p40 mAbs were prepared at various concentrations ranging from 3 to 200 ng/ml in PBS containing 0.1% BSA (Sigma, St. Louis, Mo.). 50 μl of each antibody dilution was added to the coated ELISA plate and incubated for 1 hour at room temperature. Wells were washed 3 times with PBS containing 0.05% Tween-20. Anti-mouse IgG-HRP antibody (R&D #HAF007, Minneapolis, Minn.) was diluted 1:2000 in PBS containing 0.1% BSA; 50 ul/well was added and the plates incubated for 1 hour at room temperature. Fifty microliters of TMB solution (Sigma # T0440, St. Louis, Mo.) was added to each well and incubated for 10 minutes at room temperature. The reaction was stopped by addition of 2N sulphuric acid. Plates were read spectrophotmetrically at a wavelength of 450 nm.

Kd [1]: 1 nM
koff [1]: 0.00011 s⁻¹
kon [1]: 110000 M⁻¹ s⁻¹
Av. IC50 (nM) huIL-12, PHA blast assay [2]: 2.1 nM
Av. IC50 (nM) Cyno IL-12, PHA blast assay [3]: 1.2 nM
B1: anti-IL-12p40 hybrid antibody 1A6.4 (antibody, human IgG1, kappa, L234A L235A, V domains shown)
VH: QVTLKESGPGILKPSQTLSLTCSFSGFSLSTSGMGVSWIRQPSGKGLEWLAHIWWDGDNYYNPSLKSQLTISKDTSRNQVFLRIATVDTADTATYYCARRTRVNYAMDYWGQGTSVTVSS
VL: EIVMTQSPATLSVSPGERATLSCKASQSVSNDVAWYQQKPGQAPRLLIYYASNRYTGIPARFSGSGSGTEFTLTISSLQSEDFAVYYCQQDYNSPWTFGGGTKVEIKR
notes: Hybrid: chimeric murine H chain paired with CDR-grafted L chain

Av. IC50 (nM) huIL-12, PHA blast assay [2]: 0.29 nM
Av. IC50 (nM) Cyno IL-12, PHA blast assay [3]: 0.35 nM
B2: anti-IL-12p40 hybrid antibody 1A6.7 (antibody, human IgG1, kappa, L234A L235A, V domains shown)
VH: B1 VH
VL: DIVMTQSPDSLAVSLGERATINCKASQSVSNDVAWYQQKPGQPPKLLIYYASNRYTGVPDRFSGSGSGTDFTLTISSLQAEDVAVYYCQQDYNSPWTFGGGTKVEIKR

Average IC50 (nM) Human IL-12, PHA blast IFN-γ assay [4]: 0.021 nM
Average IC50 (nM) Cyno IL-12, PHA blast IFN-γ assay [5]: 0.07 nM
B3: chimeric anti-human IL-12p40 antibody 1D4-Chim (antibody, human IgG1, kappa, L234A L235A, V domains shown)
VH: QVTLKESGPGILQPSQTLSLTCSFSGFSLRKSVMGVSWIRQPSGKGLEWLAHIYWDDDKYYNPSLKSRLTISKDPSRNQVFLKITSVDTADAATYYCTRRGIRSAMDYWGQGTSVTVSS
VL: SVVMTQTPKFLLVSAGDRVTITCKASQSVSNDVAWYQQKPGQSPKLLIYYASNRYTGVPDRFTGSGYGTDFTFIISTVRAEDLAVYFCQQDYNSPWTFGGGTKLEIKR

Av. IC50 (nM) huIL-12, PHA blast assay [2]: 0.08 nM
Av. IC50 (nM) Cyno IL-12, PHA blast assay [3]: 0.06 nM
B4: anti-IL-12p40 hybrid antibody 1A6.8 (antibody, human IgG1, kappa, L234A L235A, V domains shown)
VH: EVTLRESGPALVKPTQTLTLTCTFSGFSLSTSGMGVSWIRQPPGKALEWLAHIWWDGDNYYNPSLKSRLTISKDTSKNQVVLTMTNMDPVDTATYYCARRTRVNYAMDYWGQGTTVTVSS
VL: B3 VL with Y36F, I74T, R79Q

Kd [1]: 0.074 nM
koff [1]: 2.1e-05 s⁻¹
kon [1]: 280000 M⁻¹ s⁻¹
Av. IC50 (nM) huIL-12, PHA blast assay [2]: 0.64 nM
Av. IC50 (nM) Cyno IL-12, PHA blast assay [3]: 1.1 nM
B5: anti-IL-12p40 hybrid antibody 1D4.4 (antibody, human IgG1, kappa, L234A L235A, V domains shown)
VH: EVTLRESGPALVKPTQTLTLTCTFSGFSLSKSVMGVSWIRQPPGKALEWLAHIYWDDDKYYNPSLKSRLTISKDTSKNQVVLTMTNMDPVDTATYYCARRGIRSAMDYWGQGTTVTVSS
VL: B3 VL

Kd [1]: 0.14 nM
koff [1]: 2.6e-05 s⁻¹
kon [1]: 190000 M⁻¹ s⁻¹
Av. IC50 (nM) huIL-12, PHA blast assay [2]: 0.068 nM
Av. IC50 (nM) Cyno IL-12, PHA blast assay [3]: 0.049 nM
B6: anti-IL-12p40 hybrid antibody 1A6.3 (antibody, human IgG1, kappa, L234A L235A, V domains shown)
VH: B4 VH with R5K, A10V, Q16E, F24V, N78S
VL: B3 VL with Y36F, I74T, R79Q

Average IC50 (nM) Human IL-12, PHA blast IFN-γ assay [6]: 0.15 nM
Average IC50 (nM) Cyno IL-12, PHA blast IFN-γ assay [7]: 0.35 nM
Kd [8]: 0.047 nM
koff [8]: 3.8e-05 s⁻¹
kon [8]: 820000 M⁻¹ s⁻¹
binding result [9]: no binding (tested: 3 to 200 ng/ml mAb)
B7: murine anti-human IL-12p40 monoclonal antibody 3G7 (antibody, V domains shown)
VH: QVQLQQSGAELMKPGASVKISCKATGYTFNDYWIEWVKQRPGHGLEWIGGFSHGSGSTNYNEKFKGKATFTADSSSNTAYMQLSSLTSEDSAVYYCARRRFRGMDYWGQGTSVTVSS
VL: B3 VL with V2I, I74T, S76T, R79Q, N93S, T97S
notes: Murine mAb

Average IC50 (nM) Human IL-12, PHA blast IFN-γ assay [4]: 0.021 nM
Average IC50 (nM) Cyno IL-12, PHA blast IFN-γ assay [5]: 0.02 nM
B8: chimeric anti-human IL-12p40 antibody 1A6-Chim (antibody, human IgG1, kappa, L234A L235A, V domains shown)
VH: B1 VH
VL: B3 VL with Y36F, I74T, R79Q

Kd [1]: 0.11 nM
koff [1]: 3.1e-05 s⁻¹
kon [1]: 300000 M⁻¹ s⁻¹
Av. IC50 (nM) huIL-12, PHA blast assay [2]: 0.053 nM
Av. IC50 (nM) Cyno IL-12, PHA blast assay [3]: 0.11 nM
B9: anti-IL-12p40 hybrid antibody 1D4.5 (antibody, human IgG1, kappa, L234A L235A, V domains shown)
VH: B3 VH
VL: B2 VL
